Assay results: patent US20140056902A1

Assays:
[1] = molecular target: human BMP9 recombinant protein prepared according to Example 12 of WO 2010/126169 (N-terminal His-tagged hBMP9 complex, pLN1V5_human BMP9 vector) (human) (UniProt Q9UK05); experiment: SPR (BIAcore 2000), antibody captured on anti-mouse IgG, human BMP9 recombinant protein as analyte, single cycle kinetics
[2] = molecular target: human mature dimer BMP9 recombinant protein (manufactured by R&D systems, Cat#3209-BP) (human) (UniProt Q9UK05); experiment: ELISA, immobilized human BMP9 (100 ng/mL coat), biotin-labeled antibody titrated, absorbance 450-570 nm; unit ng/mL from the legend
Sequence of human mature dimer BMP9 recombinant protein (manufactured by R&D systems, Cat#3209-BP) (human) (Q9UK05 320-429): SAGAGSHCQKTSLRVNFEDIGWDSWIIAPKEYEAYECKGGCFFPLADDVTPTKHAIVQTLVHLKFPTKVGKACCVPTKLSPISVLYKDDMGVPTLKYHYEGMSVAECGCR

Sequence of human BMP9 recombinant protein prepared according to Example 12 of WO 2010/126169 (N-terminal His-tagged hBMP9 complex, pLN1V5_human BMP9 vector) (human) (Q9UK05 320-429, chain 1 of 2): as the sequence (Q9UK05 320-429) above
Sequence of human BMP9 recombinant protein prepared according to Example 12 of WO 2010/126169 (N-terminal His-tagged hBMP9 complex, pLN1V5_human BMP9 vector) (human) (Q9UK05 23-319, chain 2 of 2): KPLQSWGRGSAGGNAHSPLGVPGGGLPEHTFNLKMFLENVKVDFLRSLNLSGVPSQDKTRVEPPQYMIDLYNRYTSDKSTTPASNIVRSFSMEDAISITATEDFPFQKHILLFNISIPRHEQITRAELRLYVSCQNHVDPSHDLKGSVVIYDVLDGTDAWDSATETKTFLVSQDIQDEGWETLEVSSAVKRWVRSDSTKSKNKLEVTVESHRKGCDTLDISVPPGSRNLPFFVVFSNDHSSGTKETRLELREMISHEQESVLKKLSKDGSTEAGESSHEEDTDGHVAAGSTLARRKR

Q: With “anti-human BMP9 mouse monoclonal antibody (manufactured by R&D systems, clone No. 360107)” as the substance, how does the Kd [1] read?
A: The Kd was 0.616 nM.

Q: And the Relative binding affinity (to R&D antibody) [1]?
A: The Relative binding affinity (to R&D antibody) was 1 fold.

Q: What about the EC50 (read off the curve) [2] of the same substance?
A: The EC50 (read off the curve) was 10 ng/mL.
